Data on one molecule can be found in EP4660202A1.

In experiment [1] the target is T1, huTregL1-his (human) (UniProt Q96JA1).
T1 sequence: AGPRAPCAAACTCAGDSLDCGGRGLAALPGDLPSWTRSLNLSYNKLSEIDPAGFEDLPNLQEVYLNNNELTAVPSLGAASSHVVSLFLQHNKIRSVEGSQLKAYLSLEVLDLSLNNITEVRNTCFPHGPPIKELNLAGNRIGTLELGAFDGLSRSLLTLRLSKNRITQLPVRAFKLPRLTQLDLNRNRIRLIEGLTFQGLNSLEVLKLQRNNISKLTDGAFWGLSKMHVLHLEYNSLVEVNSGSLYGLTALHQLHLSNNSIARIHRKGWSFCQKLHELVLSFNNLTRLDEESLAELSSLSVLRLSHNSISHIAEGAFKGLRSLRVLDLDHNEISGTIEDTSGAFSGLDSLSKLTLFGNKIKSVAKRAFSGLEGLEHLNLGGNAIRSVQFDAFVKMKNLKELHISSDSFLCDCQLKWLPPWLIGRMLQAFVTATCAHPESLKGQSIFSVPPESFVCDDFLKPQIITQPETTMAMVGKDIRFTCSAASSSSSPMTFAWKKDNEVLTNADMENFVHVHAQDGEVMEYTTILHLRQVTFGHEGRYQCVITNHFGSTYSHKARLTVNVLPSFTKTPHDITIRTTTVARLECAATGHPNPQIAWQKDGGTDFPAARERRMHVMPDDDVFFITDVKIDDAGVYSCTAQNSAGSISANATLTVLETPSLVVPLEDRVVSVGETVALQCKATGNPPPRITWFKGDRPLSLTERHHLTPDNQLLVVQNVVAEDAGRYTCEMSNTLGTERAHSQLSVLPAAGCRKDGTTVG
Put plainly: cross-linking MS (DSBU), sequence N211-W222 of huTregL1-his, chymotrypsin or trypsin.

In experiment [2] the target is T1, huTregL1-his (human). Put plainly: cross-linking MS (DSBU), sequence S90-L101 of huTregL1-his, chymotrypsin or trypsin.
Experiment [3] has as its target T1, huTregL1-his (human). Put plainly: cross-linking MS (DSBU), sequence S362-K365 of huTregL1-his, trypsin-treated group.
For experiment [4], the target named is T1, huTregL1-his (human). The experiment can be described thus: cross-linking MS (DSBU), sequence L88-K92 of huTregL1-his, chymotrypsin or trypsin.
Experiment [5] has as its target T1, huTregL1-his (human). The experiment can be described thus: covalent labelling MS (DEPC), sequence Q542-Y553 of huTregL1-his, chymotrypsin-treated group, antigen alone against antigen+antibody.
In experiment [6] the target is T1, huTregL1-his (human). Put plainly: covalent labelling MS (DEPC), sequence E62-L101 of huTregL1-his, antigen alone against antigen+antibody.
Experiment [7] deals with T1, huTregL1-his (human). The experiment can be described thus: covalent labelling MS (DEPC), sequence D111-L134 of huTregL1-his, chymotrypsin-treated group, antigen alone against antigen+antibody.

B1: GTC210-03 clone (antibody, mouse IgG2a, V domains shown)
VH: EVQLLESGGGLVQPGGSLRLSCAASGFTFSSYDMSWVRQAPGKGLEWVSGISPDGSNIYYADSVKGRFTISRDNSKNTLYLQMNSLRAEDTAVYYCAKVGLRCRYEACSYAYGMDVWGQGTLVTVSS
VL: QSVLTQPPSASGTPGQRVTISCSGSSSNIGSNYVSWYQQLPGTAPKLLIYSDSHRPSGVPDRFSGSKSGTSASLAISGLRSEDEADYYCATWDSSLNGYVFGGGTKLTVLR
B1: the T% (peptides of the same sequence detected in the test sample compared to the control) in experiment [1] is < 2%; in experiment [2], < 2%; in experiment [3] it was 0%; in experiment [4], < 2%. Also, the labeling decrease (%) in experiment [5] stood at 14.7%; in experiment [6], 13.2%; in experiment [7], 15.3%.
